Test results reported in patent publication US20250339531A1 (FRED HUTCHINSON CANCER CENTER, published 2025).

Tests used:
[1] = target: T1, Signal transducer and activator of transcription 1-alpha/beta (Homo sapiens, UniProt P42224 2-750); experiment: anti-FLAG co-IP and western of truncation series in MB135 cells (FIG. 27A)
T1 construct: also called STAT1
T1 sequence (looked up): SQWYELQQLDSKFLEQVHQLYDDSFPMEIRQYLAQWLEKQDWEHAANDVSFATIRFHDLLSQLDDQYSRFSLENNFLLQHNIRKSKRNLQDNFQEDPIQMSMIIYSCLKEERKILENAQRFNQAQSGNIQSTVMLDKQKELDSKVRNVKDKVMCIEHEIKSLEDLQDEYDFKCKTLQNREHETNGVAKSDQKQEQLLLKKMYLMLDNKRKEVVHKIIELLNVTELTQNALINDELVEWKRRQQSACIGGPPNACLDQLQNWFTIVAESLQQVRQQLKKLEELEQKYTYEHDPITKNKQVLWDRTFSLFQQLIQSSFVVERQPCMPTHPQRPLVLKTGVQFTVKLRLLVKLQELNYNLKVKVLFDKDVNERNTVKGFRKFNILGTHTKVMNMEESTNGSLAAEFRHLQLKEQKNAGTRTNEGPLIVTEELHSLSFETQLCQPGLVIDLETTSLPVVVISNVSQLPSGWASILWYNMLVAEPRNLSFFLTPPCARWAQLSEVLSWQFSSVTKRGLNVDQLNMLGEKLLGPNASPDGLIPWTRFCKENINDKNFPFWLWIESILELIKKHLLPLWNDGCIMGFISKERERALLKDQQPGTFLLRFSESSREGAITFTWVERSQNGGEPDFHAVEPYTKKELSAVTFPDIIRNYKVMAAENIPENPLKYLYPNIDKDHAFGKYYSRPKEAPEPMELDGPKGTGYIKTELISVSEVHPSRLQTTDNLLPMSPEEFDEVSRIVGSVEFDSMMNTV

[2] = target: T2, Uncharacterized protein (Fragment) (Homo sapiens); experiment: anti-FLAG co-IP LC-MS, exp 4, +Dox +IFNG
T2 construct: also called NA (Homology to TAP2)

[3] = target: T3, Immunoglobulin kappa variable 2-40 (Homo sapiens); experiment: anti-FLAG co-IP LC-MS, exp 4, +Dox +IFNG
T3 construct: also called IGKV2-40
T3 sequence (A0A087WW87 20-121): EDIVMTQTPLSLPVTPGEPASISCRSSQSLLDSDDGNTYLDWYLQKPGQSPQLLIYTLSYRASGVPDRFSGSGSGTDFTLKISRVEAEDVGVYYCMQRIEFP

[4] = target: T1, Signal transducer and activator of …; experiment: anti-FLAG co-IP LC-MS, exp 4, +Dox +IFNG
[5] = target: T4, Proteasome subunit alpha type (Homo sapiens); experiment: anti-FLAG co-IP LC-MS, exp 4, +Dox +IFNG
T4 construct: also called PSMA6

B1: iDUX4aa154-271 (other)
chain: GRAPAQAGGLCSAAPGGGHPAPSWVAFAHTGAWGTGLPAPHVPCAPGALPQGAFVSQAARAAPALQPSQAAPAEGISQPAPARGDFAYAAPAPPDGALSHPQAPRWPPHPGKSREDRD
notes: not shown: N-terminal 3×FLAG tag and NLS
B1: no binding [1].

B2: i3XFLAG-NLS-CTDaa154-419mL1dL2 (other)
chain: MDYKDHDGDYKDHDIDYKDDDDKPPKRMRREPKKKRKVGRAPAQAGGLCSAAPGGGHPAPSWVAFAHTGAWGTGLPAPHVPCAPGALPQGAFVSQAARAAPALQPSQAAPAEGISQPAPARGDFAYAAPAPPDGALSHPQAPRWPPHPGKSREDRDPQRDGLPGPCAVAQPGPAQAGPQGQGVLAPPTSQGSPWWGWGRGPQVAGAAWEPQAGAAPPPQPAPPDASASARQGQMQGIPAPSQALQEPAPWSALPCGLLAAEAAASPEFLQQAQPLLETEAPGELEASEEAASLEAPLSEEEYRA
notes: also called longCTDmL1dL2; longCTDmL1DL2
With B2 the PSMs [2] was 2 PSMs, the PSMs [3] was 1 PSMs and the PSMs [4] was 18 PSMs. For the same binder, the PSMs [5] was 4 PSMs.
